Assay results published in ChEMBL document CHEMBL2074551, “Drug resistance and ATP-dependent conjugate transport mediated by the apical multidrug resistance protein, MRP2, permanently expressed in human and canine cells” (Mol Pharmacol, 1999).

What was measured:
[1] = substrate: CCCCC/C=C\C\C=C/C=C/C=C/[C@@H](SC[C@@H](NC(=O)CC[C@H](N)C(=O)O)C(=O)NCC(=O)O)[C@@H](O)CCCC(=O)O; assay: (§1) TP_TRANSPORTER: uptake in membrane vesicle from MRP2-expressing HEK-293 cells; format: functional, cell membranes, HEK293
[2] = substrate: C[C@]12CC[C@@H]3c4ccc(O)cc4CC[C@H]3[C@@H]1CC[C@@H]2O[C@@H]1O[C@H](C(=O)O)[C@@H](O)[C@H](O)[C@H]1O; assay: as §1; format: functional, cell membranes, HEK293

B1: ATP-binding cassette sub-family C member 2 (Rattus norvegicus) (protein)
chain: MDKFCNSTFWDLSLLESPEADLPLCFEQTVLVWIPLGFLWLLAPWQLYSVYRSRTKRSSITKFYLAKQVFVVFLLILAAIDLSLALTEDTGQATVPPVRYTNPILYLCTWLLVLAVQHSRQWCVRKNSWFLSLFWILSVLCGVFQFQTLIRALLKDSKSNMAYSYLFFVSYGFQIVLLILTAFSGPSDSTQTPSVTASFLSSITFSWYDRTVLKGYKHPLTLEDVWDIDEGFKTRSVTSKFEAAMTKDLQKARQAFQRRLQKSQRKPEATLHGLNKKQSQSQDVLVLEEAKKKSEKTTKDYPKSWLIKSLFKTFHVVILKSFILKLIHDLLVFLNPQLLKLLIGFVKSSNSYVWFGYICAILMFAVTLIQSFCLQSYFQHCFVLGMCVRTTVMSSIYKKALTLSNLARKQYTIGETVNLMSVDSQKLMDATNYMQLVWSSVIQITLSIFFLWRELGPSILAGVGVMVLLIPVNGVLATKIRNIQVQNMKNKDKRLKIMNEILSGIKILKYFAWEPSFQEQVQGIRKKELKNLLRFGQLQSLLIFILQITPILVSVVTFSVYVLVDSANVLNAEKAFTSITLFNILRFPLSMLPMVTSSILQASVSVDRLERYLGGDDLDTSAIRRVSNFDKAVKFSEASFTWDPDLEATIQDVNLDIKPGQLVAVVGTVGSGKSSLVSAMLGEMENVHGHITIQGSTAYVPQQSWIQNGTIKDNILFGSEYNEKKYQQVLKACALLPDLEILPGGDMAEIGEKGINLSGGQKQRVSLARAAYQDADIYILDDPLSAVDAHVGKHIFNKVVGPNGLLAGKTRIFVTHGIHFLPQVDEIVVLGKGTILEKGSYRDLLDKKGVFARNWKTFMKHSGPEGEATVNNDSEAEDDDDGLIPTMEEIPEDAASLAMRRENSLRRTLSRSSRSSSRRGKSLKNSLKIKNVNVLKEKEKEVEGQKLIKKEFVETGKVKFSIYLKYLQAVGWWSILFIILFYGLNNVAFIGSNLWLSAWTSDSDNLNGTNNSSSHRDMRIGVFGALGLAQGICLLISTLWSIYACRNASKALHGQLLTNILRAPMRFFDTTPTGRIVNRFSGDISTVDDLLPQTLRSWMMCFFGIAGTLVMICMATPVFAIIIIPLSILYISVQVFYVATSRQLRRLDSVTKSPIYSHFSETVTGLPIIRAFEHQQRFLAWNEKQIDINQKCVFSWITSNRWLAIRLELVGNLVVFCSALLLVIYRKTLTGDVVGFVLSNALNITQTLNWLVRMTSEAETNIVAVERISEYINVENEAPWVTDKRPPADWPRHGEIQFNNYQVRYRPELDLVLKGITCNIKSGEKVGVVGRTGAGKSSLTNCLFRILESAGGQIIIDGIDVASIGLHDLRERLTIIPQDPILFSGSLRMNLDPFNKYSDEEVWRALELAHLRSFVSGLQLGLLSEVTEGGDNLSIGQRQLLCLGRAVLRKSKILVLDEATAAVDLETDSLIQTTIRKEFSQCTVITIAHRLHTIMDSDKIMVLDNGKIVEYGSPEELLSNRGSFYLMAKEAGIENVNHTEL
With B1 the Km [1] was 1.1 µM and the Km [2] was 6.9 µM.

B2: ATP-binding cassette sub-family C member 2 (Homo sapiens) (protein)
chain: MLEKFCNSTFWNSSFLDSPEADLPLCFEQTVLVWIPLGYLWLLAPWQLLHVYKSRTKRSSTTKLYLAKQVFVGFLLILAAIELALVLTEDSGQATVPAVRYTNPSLYLGTWLLVLLIQYSRQWCVQKNSWFLSLFWILSILCGTFQFQTLIRTLLQGDNSNLAYSCLFFISYGFQILILIFSAFSENNESSNNPSSIASFLSSITYSWYDSIILKGYKRPLTLEDVWEVDEEMKTKTLVSKFETHMKRELQKARRALQRRQEKSSQQNSGARLPGLNKNQSQSQDALVLEDVEKKKKKSGTKKDVPKSWLMKALFKTFYMVLLKSFLLKLVNDIFTFVSPQLLKLLISFASDRDTYLWIGYLCAILLFTAALIQSFCLQCYFQLCFKLGVKVRTAIMASVYKKALTLSNLARKEYTVGETVNLMSVDAQKLMDVTNFMHMLWSSVLQIVLSIFFLWRELGPSVLAGVGVMVLVIPINAILSTKSKTIQVKNMKNKDKRLKIMNEILSGIKILKYFAWEPSFRDQVQNLRKKELKNLLAFSQLQCVVIFVFQLTPVLVSVVTFSVYVLVDSNNILDAQKAFTSITLFNILRFPLSMLPMMISSMLQASVSTERLEKYLGGDDLDTSAIRHDCNFDKAMQFSEASFTWEHDSEATVRDVNLDIMAGQLVAVIGPVGSGKSSLISAMLGEMENVHGHITIKGTTAYVPQQSWIQNGTIKDNILFGTEFNEKRYQQVLEACALLPDLEMLPGGDLAEIGEKGINLSGGQKQRISLARATYQNLDIYLLDDPLSAVDAHVGKHIFNKVLGPNGLLKGKTRLLVTHSMHFLPQVDEIVVLGNGTIVEKGSYSALLAKKGEFAKNLKTFLRHTGPEEEATVHDGSEEEDDDYGLISSVEEIPEDAASITMRRENSFRRTLSRSSRSNGRHLKSLRNSLKTRNVNSLKEDEELVKGQKLIKKEFIETGKVKFSIYLEYLQAIGLFSIFFIILAFVMNSVAFIGSNLWLSAWTSDSKIFNSTDYPASQRDMRVGVYGALGLAQGIFVFIAHFWSAFGFVHASNILHKQLLNNILRAPMRFFDTTPTGRIVNRFAGDISTVDDTLPQSLRSWITCFLGIISTLVMICMATPVFTIIVIPLGIIYVSVQMFYVSTSRQLRRLDSVTRSPIYSHFSETVSGLPVIRAFEHQQRFLKHNEVRIDTNQKCVFSWITSNRWLAIRLELVGNLTVFFSALMMVIYRDTLSGDTVGFVLSNALNITQTLNWLVRMTSEIETNIVAVERITEYTKVENEAPWVTDKRPPPDWPSKGKIQFNNYQVRYRPELDLVLRGITCDIGSMEKIGVVGRTGAGKSSLTNCLFRILEAAGGQIIIDGVDIASIGLHDLREKLTIIPQDPILFSGSLRMNLDPFNNYSDEEIWKALELAHLKSFVASLQLGLSHEVTEAGGNLSIGQRQLLCLGRALLRKSKILVLDEATAAVDLETDNLIQTTIQNEFAHCTVITIAHRLHTIMDSDKVMVLDNGKIIECGSPEELLQIPGPFYFMAKEAGIENVNSTKF
B2 was tested, and the Km [1] was 1 µM and the Km [2] was 7.2 µM.
